Laboratory results: patent US20250025541A1

Target: IL-4Ra of CTLL-2 cells (UniProt P16382)
Test: cell-based or functional assay

## muIL-4 immunogenic product (KLH)
  ED50 [ng · mL^-1], residual activity, CTLL-2 proliferation: 0.0215 µg/mL
  Inactivation factor (ED50 of the product divided by ED50 of the muIL-4 control), CTLL-2 proliferation: 21

## muIL-4 immunogenic product (CRM197) (from UniProt P07750 21-140; P00587 26-560)
  ED50 [ng · mL^-1], residual activity, CTLL-2 proliferation: 0.62 µg/mL
  Inactivation factor (ED50 of the product divided by ED50 of the muIL-4 control), CTLL-2 proliferation: 370
